Data reported in publication PMC3115558 (Biochemistry, 2011).
Ends that are not written are not given here.

Biological target: PP1α catalytic subunit (New England BioLabs) (UniProt P62139 1-330)
Assay: SPR

Chain of PP1α catalytic subunit (New England BioLabs) (P62139 whole entry): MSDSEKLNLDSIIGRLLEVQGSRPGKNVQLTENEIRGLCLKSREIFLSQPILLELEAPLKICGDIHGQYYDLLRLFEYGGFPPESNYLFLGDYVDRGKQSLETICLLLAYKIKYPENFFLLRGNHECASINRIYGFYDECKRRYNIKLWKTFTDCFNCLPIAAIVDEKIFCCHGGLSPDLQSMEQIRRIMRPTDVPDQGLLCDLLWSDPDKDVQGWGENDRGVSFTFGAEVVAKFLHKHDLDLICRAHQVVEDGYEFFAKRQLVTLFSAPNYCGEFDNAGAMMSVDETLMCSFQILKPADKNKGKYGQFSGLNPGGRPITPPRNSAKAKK

Kd: 341 nM
Binder: AERQKEKASMLCAKRAKAAAKALKP (also: biotinylated, position not given here) [Biotinylated AKAP79 synthetic peptide, amino acids 25-49, mutant (AxxAxA)]
